The values below come from doi:10.1101/2023.08.09.551721 (bioRxiv, 2023).

The target of this test is histone H4 (in the nucleosome) (Xenopus laevis, UniProt P62799). The test is described as follows: cryo-EM structure.

B1: DDM1-HELLS chimeric protein (DDM1^HELLS) (enzyme)
chain: MVSLRSRKVIPASEMVSDGKTEKDASGDSPTSVLNEEENCEEKSVTVVEEEILLAKNGDSSLISEAMAQEEEQLLKLREDEEKANNAGSAVAPNLNETQFTKLDELLTQTQLYSEFLLEKMEDITINGIESESQKAEPEKTGRGRKRKAASQYNNTKAKRAVAAMISRSKEDGETINSDLTEEETVIKLQNELCPLLTGGQLKSYQLKGVKWLISLWQNGLNGILADQMGLGKTIQTIGFLSHLKGNGLDGPYLVIAPLSTLSNWFNEIARFTPSINAIIYHGDKNQRDELRRKHMPKTVGPKFPIVITSYEVAMNDAKRILRHYPWKYVVIDEGHRLKNHKCKLLRELKHLKMDNKLLLTGTPLQNNLSELWSLLNFILPDIFTSHDEFESWFDFSEKNKNEATKEEEEKRRAQVVSKLHGILRPFILRRMKCDVELSLPRKKEIIMYATMTDHQKKFQEHLVNNTLEAHLGENAIRGIELSPTGRPKRRTRKSINYSKIDDFPNELEKLISQIQPEVDRERAVVEVNIPVEQGWKGKLNNLVIQLRKNCNHPDLLQGQIDGSYLYPPVEEIVGQCGKFRLLERLLVRLFANNHKVLIFSQWTKLLDIMDYYFSEKGFEVCRIDGSVKLDERRRQIKDFSDEKSSCSIFLLSTRAGGLGINLTAADTCILYDSDWNPQMDLQAMDRCHRIGQTKPVHVYRLSTAQSIETRVLKRAYSKLKLEHVVIGQGQFHQERAKSSTPLEEEDILALLKEDETAEDKLIQTDISDADLDRLLDRSDLTITAPGETQAAEAFPVKGPGWEVVLPSSGGMLSSLNS
On to B1, for which the binding result is “binds”.
